From PMC8528956 (Frontiers in Immunology, 2021)

Biological target: wild-type H3 A/Hong Kong/1/1968 hemagglutinin, recombinant full-length soluble ectodomain (Influenza A virus A/Hong Kong/1/1968 …, UniProt Q91MA7)
Assay: ELISA
Details: both partners purified

| Binder | binding result |
| --- | --- |
| HC45 IgG (humanized constant domains), directed to the vestigial esterase domain (antibody, V domains shown, source: 293F suspension cells, transient, purified from supernatants (Protein G); copies: 2 + 2) VH: QVQLQQPGAELVRPGASVKLSCKASGYTLTTYWMNWFKQRPDQGLEWIGRIDPYDSETHYNQKFKDKAILTVDRSSSTAYMQLSSLTSEDSAVYYCTRFLQITTIIYGMDYWGQGTSVTVSS VL: DVVMTQTPLSLPVSLGDQASISCRSSQTLVHSNGNTYLHWYLQKPGQSPKLLIYKVSNRFSGVPDRFSGSGSGTDFTLKISRVEAEDLGVYFCSQNTHVPYTFGGGTKLEIK | binds |
| HC19 IgG (humanized constant domains), RBS-directed (antibody, V domains shown, source: 293F suspension cells, transient, purified from supernatants (Protein G); copies: 2 + 2) VH: QVQLKESGPGLVAPSQSLSITCTVSGFLLISNGVHWVRQPPGKGLEWLGVIWAGGNTNYNSALMSRVSISKDNSKSQVFLKMKSLQTDDTAMYYCARDFYDYDVFYYAMDYWGQGTSVTVSS VL: QAVVTQESALTTSPGETVTLTCRSSTGAVTTSNYANWVQEKPDHLFTGLIGGTNNRAPGVPARFSGSLIGDKAALTITGAQTEDEAIYFCALWYSNHWVFGGGTKLTVL | binds |
| FI6 IgG, stem-directed (antibody, V domains shown, source: 293F suspension cells, transient, purified from supernatants (Protein G); copies: 2 + 2) VH: QVQLVESGGGVVQPGRSLRLSCAASGFTFSTYAMHWVRQAPGKGLEWVAVISYDANYKYYADSVKGRFTISRDNSKNTLYLQMNSLRAEDTAVYYCAKDSQLRSLLYFEWLSQGYFDYWGQGTLVTVSS VL: not shown | binds |
| 8H10 IgG (humanized constant domains), directed to the HA trimer interface (antibody, V domains shown, source: 293F suspension cells, transient, purified from supernatants (Protein G); copies: 2 + 2) VH: EVQLQESGEGLVKPGGSLKLSCAASGFTFSNYDMSWVRQTPEKRLEWVAYISSGGDYIYYADTVKGRFTISRDNARNTLYLQMSSLKSEDTAMYYCTRNYYYGSLPVWFAYWGQGTLVTVSG VL: QAVVTQESALTTSPGETVTLTCRSSTGAVTTSNYANWVQEKPDHLFTGLIGGTNNRAPGVPARFSGSLIGDKAALTITGAQTEDEAIYFCALWYSNHSWVFGGGTKLTVL | binds |
